Literature values, collected in PMC2895966.
pKd: −log10 of the molar value.

Biological target: Pyrrhocoricin (Pyrrhocoris apterus) (UniProt P37362)
Sequence (P37362 whole entry): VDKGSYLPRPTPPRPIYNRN

DnaK SBD, sequence (P0A6Y8 389-607): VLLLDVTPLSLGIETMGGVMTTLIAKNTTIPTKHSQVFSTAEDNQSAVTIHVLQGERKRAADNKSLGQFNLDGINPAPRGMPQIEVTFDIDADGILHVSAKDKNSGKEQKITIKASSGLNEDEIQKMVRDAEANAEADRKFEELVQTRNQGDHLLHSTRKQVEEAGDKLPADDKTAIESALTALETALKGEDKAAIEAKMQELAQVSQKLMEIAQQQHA

In the case of DnaK SBD (from UniProt P0A6Y8), the pKd is listed as 4.30.
